Measurements: patent US10941182 (Amgen, dated 2021)
Starred links: 1 amine or outer side, 2 acyl side, 3 side chain; linkers in the order of their positions; H or OH if unused. Non-standard residues stand in square brackets, D forms with d. *: point of attachment. AC4Abu = α-carboxy-4-aminobutyric acid, O=C(C(CCN[*:1])C(=O)[*:3])[*:2]; Oic = O=C(O)[C@@H]1C[C@@H]2CCCC[C@@H]2N1; Phe(4-Cl) = N[C@@H](Cc1ccc(Cl)cc1)C(=O)O; γGlu = O=C(O)[C@H](CCC(=O)[*:2])N[*:1]; d(β3hF) = N[C@@H](CC(=O)O)Cc1ccccc1; NMeR = CN[C@@H](CCCNC(=N)N)C(=O)O; Palmitoyl = CCCCCCCCCCCCCCCC(=O)*; Cha = N[C@@H](CC1CCCCC1)C(=O)O; β3hP = O=C(O)C[C@@H]1CCCN1; Nle = CCCC[C@H](N)C(=O)O; AEEA = NCCOCCOCC(=O)O; Aib = CC(C)(N)C(=O)O; Inp = O=C(O)C1CCNCC1; Nip = nipecotic acid; Sar = CNCC(=O)O

T1: rat APJ receptor (rat, UniProt Q9JHG3 1-377)
T1 sequence (looked up): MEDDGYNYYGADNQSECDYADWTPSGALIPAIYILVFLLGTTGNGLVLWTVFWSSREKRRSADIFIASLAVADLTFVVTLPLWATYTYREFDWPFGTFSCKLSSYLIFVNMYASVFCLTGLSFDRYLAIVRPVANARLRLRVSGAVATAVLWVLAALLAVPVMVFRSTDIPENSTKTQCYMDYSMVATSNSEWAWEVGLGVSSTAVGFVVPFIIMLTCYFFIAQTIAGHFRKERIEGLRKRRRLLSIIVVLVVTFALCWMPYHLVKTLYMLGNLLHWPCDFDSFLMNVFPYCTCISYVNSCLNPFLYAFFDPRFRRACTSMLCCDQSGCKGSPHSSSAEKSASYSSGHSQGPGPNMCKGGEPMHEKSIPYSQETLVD

T2: human APJ receptor (human, UniProt P35414 1-380)
T2 sequence (looked up): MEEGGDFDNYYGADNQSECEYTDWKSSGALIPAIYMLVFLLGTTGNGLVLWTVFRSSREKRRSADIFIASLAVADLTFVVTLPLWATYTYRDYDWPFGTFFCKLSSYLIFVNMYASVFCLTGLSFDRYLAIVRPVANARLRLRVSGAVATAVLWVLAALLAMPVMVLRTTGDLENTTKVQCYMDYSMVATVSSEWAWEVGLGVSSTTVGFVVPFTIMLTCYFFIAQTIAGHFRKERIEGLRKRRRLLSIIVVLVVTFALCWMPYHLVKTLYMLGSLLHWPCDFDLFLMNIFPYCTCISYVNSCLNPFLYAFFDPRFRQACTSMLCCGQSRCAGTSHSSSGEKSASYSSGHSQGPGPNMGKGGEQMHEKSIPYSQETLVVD


Tests used:
rat APJ receptor = biological target: T1, rat APJ receptor; test: cell-based or functional assay
human APJ receptor = biological target: T2, human APJ receptor; test: cell-based or functional assay

EC50 Rat APJ Receptor (rat APJ receptor) [nM]	EC50 Human APJ Receptor (human APJ receptor) [nM]	Binder
29.3	8.5	Palmitoyl-[AC4Abu][AEEA][AEEA][dQ]RP[NMeR][Cha]SHKG[Nip][Nle][Aib][Phe(4-Cl)]-OH [SEQ ID NO: 582]
24.6	12.2	Palmitoyl-[γGlu][AEEA][AEEA][dQ]RP[NMeR][Cha]SHK[Sar][Oic][Nle][β3hP][d(β3hF)]-OH (SMILES CCCCCCCCCCCCCCCC(=O)N[C@@H](CCC(=O)NCCOCCOCC(=O)NCCOCCOCC(=O)N[C@H](CCC(N)=O)C(=O)N[C@@H](CCCNC(=N)N)C(=O)N1CCC[C@H]1C(=O)N(C)[C@@H](CCCNC(=N)N)C(=O)N[C@@H](CC1CCCCC1)C(=O)N[C@@H](CO)C(=O)N[C@@H](Cc1c[nH]cn1)C(=O)N[C@@H](CCCCN)C(=O)N(C)CC(=O)N1[C@H](C(=O)N[C@@H](CCCC)C(=O)N2CCC[C@H]2CC(=O)N[C@@H](CC(=O)O)Cc2ccccc2)C[C@@H]2CCCC[C@@H]21)C(=O)O) [SEQ ID NO: 626]
38.8	1.66	Palmitoyl-[γGlu][AEEA][AEEA][dQ]RP[NMeR][Cha]SHKG[β3hP][Nle][Phe(4-Cl)]-OH (SMILES CCCCCCCCCCCCCCCC(=O)N[C@@H](CCC(=O)NCCOCCOCC(=O)NCCOCCOCC(=O)N[C@H](CCC(N)=O)C(=O)N[C@@H](CCCNC(=N)N)C(=O)N1CCC[C@H]1C(=O)N(C)[C@@H](CCCNC(=N)N)C(=O)N[C@@H](CC1CCCCC1)C(=O)N[C@@H](CO)C(=O)N[C@@H](Cc1c[nH]cn1)C(=O)N[C@@H](CCCCN)C(=O)NCC(=O)N1CCC[C@H]1CC(=O)N[C@@H](CCCC)C(=O)N[C@@H](Cc1ccc(Cl)cc1)C(=O)O)C(=O)O) [SEQ ID NO: 613]
8.89	5.15	Palmitoyl-[AC4Abu][AEEA][AEEA][dQ]RP[NMeR][Cha]SHKG[Oic][Nle]P[d(β3hF)]-OH (SMILES CCCCCCCCCCCCCCCC(=O)NCCC(C(=O)O)C(=O)NCCOCCOCC(=O)NCCOCCOCC(=O)N[C@H](CCC(N)=O)C(=O)N[C@@H](CCCNC(=N)N)C(=O)N1CCC[C@H]1C(=O)N(C)[C@@H](CCCNC(=N)N)C(=O)N[C@@H](CC1CCCCC1)C(=O)N[C@@H](CO)C(=O)N[C@@H](Cc1c[nH]cn1)C(=O)N[C@@H](CCCCN)C(=O)NCC(=O)N1[C@H](C(=O)N[C@@H](CCCC)C(=O)N2CCC[C@H]2C(=O)N[C@@H](CC(=O)O)Cc2ccccc2)C[C@@H]2CCCC[C@@H]21) [SEQ ID NO: 567]
49.2	5.96	Palmitoyl-[AC4Abu][AEEA][AEEA][dQ]RP[NMeR][Cha]SHKG[Inp][Nle][Aib][Phe(4-Cl)]-OH (SMILES CCCCCCCCCCCCCCCC(=O)NCCC(C(=O)O)C(=O)NCCOCCOCC(=O)NCCOCCOCC(=O)N[C@H](CCC(N)=O)C(=O)N[C@@H](CCCNC(=N)N)C(=O)N1CCC[C@H]1C(=O)N(C)[C@@H](CCCNC(=N)N)C(=O)N[C@@H](CC1CCCCC1)C(=O)N[C@@H](CO)C(=O)N[C@@H](Cc1c[nH]cn1)C(=O)N[C@@H](CCCCN)C(=O)NCC(=O)N1CCC(C(=O)N[C@@H](CCCC)C(=O)NC(C)(C)C(=O)N[C@@H](Cc2ccc(Cl)cc2)C(=O)O)CC1) [SEQ ID NO: 583]
